Reference: the DeepSol protein solubility set

Experiment: soluble on expression in E. coli; label from the status in PepcDB or PDB records
With “MSYLLALDAGTGSIRAVIFDLNGRQLAVGQAEWKHLSVDNVPGSMEFDLTTNWQLACQCIRQALDAARLSAADIQSVACCSMREGIVLYDRNGEAIWACANVDARASREVAELKEIHDFRFESEVYEVSGQTLALSAMPRLLWLAHHRPDIYRKAATITMISDWLAAKLSGELAVDPSNAGTTGMLDLFSRDWRPALLDMAGLRADMLSPVKETGTLLGAVTEAAAQQSGLRAGTPVVMGGGD” the “soluble on expression in E. coli” value was “not soluble”. For “MLSKKLHDALNDQMNFEFYSAHAYMAMAAYCTAESYDGFANFFLVQAEEERFHAMKLYNYINDRGERAIITGFDNPNNEYESVLNAFEVALEHEREVTKRIYNLSDIAWDEREHATITFLKWFVDEQVEEEASFDSIIQKLKRITSDSNALFMLDAELEKRTFTPPAE”, the “soluble on expression in E. coli” value was “not soluble”. In the case of “MPSIYITGVDPTIVKIHEIQGTGTASPLVNNVVTIEAIVVGDFQDGDGDISRNLRGFYVQEEDADVDGNVATSEGIFIFENGNFITDVNVGDKVQITGTVDEFFGETQIDTITNITVISSGNTLPTAANITLPTAGTTESQGGTPQPDLEAFEGMLVKFTDTLTITEMFNLDRFNEIKLSQGGRPQQFTQFNDANVAGYGAYREEIGARTITYDDGLSVQNAEISNLDGFGSSFSTASDIRMGDTINNLTGVLSYQWAGNASSGATWRVRSAVDGTNQFTKVNDRPVTPENVGGSLKVTGFNVLNYFKTIDLEHHHHHH”, the “soluble on expression in E. coli” value is reported as “not soluble”. For “MEAYEKHYQELRQAKNIDGKPFQLIPVPVTRKVVKEADCKGSYLNFYIGNEVVLVPVYGDEHDKLGLQIIEGQFPGRRIVGIYVNELYAYGGMIHCVTQQHIELEHHHHHH”, the “soluble on expression in E. coli” value was “not soluble”. For “TQDMELNVNVNVTFQQNKLLSLSGMYGGENISAPEYKSLASLDGAGFHGGYNHIVYQMVGQPLGVFYLPHCKGLIADGNGGYTYDIADLNGGGVSLEDGEDRYVAGQAVPKTLLGSNISFRYKRFDLSVQVNGAFGHKIYNGTSLTYMNMNIFPDYNVMKKAPGRNIKDQTATDYWLEKGDYINFDYVTVGWNVPVAKWKKYVQSFRLAFTVNNLATITGYSGLSPMINSSTVNSTLGVDDKRAYPLARTYTLGLSINF”, the “soluble on expression in E. coli” value was “not soluble”. In the case of “MTHRPELHVTPEIGILDAPAGALFDGTRWHLFHQFRPKATAPSRWAHDYATTDPFNWEICDDVIAPQGDEIRLRAGSVTSDGKTTRLYFTSITNEGDSIHLAEITDLDATTYDVNDDATTTDPHVTRLGQVVADQGGYTNFRSPCVVPNWVTADDRDEGHSGWIMLAVTGDMDEPTLVILDSENGTDWELRGPLKVVGNSGIEAERPVAPRIIRLRDEIDQNVYDILIVTIEIGGIDRSGYLVGKLHNNIFTVVSPFTRIDYGHDFTRPRNTNYTSHLNSSVAPEHRYSHAHVFGLMNGIGRLDDATTHLSFREEQWANCLSLPRRMTLQGGKIYHTPVAGLPDAIRDSDHAIMWTGLLDVPLGEKVTVELVDTTGNIAAKITHYGDLLELDRSMNPHHEGDDIAVAPLTEDDTDSVTIIVDGSTVEVFADGGQIAMASRVYFNGYCEAFTPQASDGADILRSDVTKPLG”, the “soluble on expression in E. coli” value is reported as “not soluble”. For “ETVQVNLPVSLEDLFVGKKKSFKIGRKGPHGASEKTQIDIQLKPGWKAGTKITYKNQGDYNPQTGRRKTLQFVIQEKSHPNFKRDGDDLIYTLPLSFKESLLGFSKTIQTIDGRTLPLSRVQPVQPSQTSTYPGQGMPTPKNPSQRGNLIVKYKVDYPISLNDAQKRAIDENF”, the “soluble on expression in E. coli” value was “soluble”. In the case of “MIVREGSAEILVPEVYHGPGKRGTGFYNADQKINRDITIEFIKKMGIRNVLDGFGGTGIRGIRISKETDSAVTISEVSPDSYRLIRDNVERNGSQASVINDSFECVLQHGAYEYVDVDPYGSPVPYLDAALMGVKRNGFLGVTATDQSALTGSVPHKTRIRYDALIKNDTFRHEMGIRLLIGYMAKRAASLGRFIDPLISIWHGHYYRVFVRVRKGFEGAGRMMQNLGYVNKHNLLSGIYQDMDEGPVWKGNLQDNAVAEAVLASAGHKAFNPEENRLLFCDLTDIARARHTSLPDIESVIDALSSSGHAASRTMFSPTGIKTDASCDLVESLMMDTLHRRSPA”, the “soluble on expression in E. coli” value is reported as “not soluble”. With “MGSDKIHHHHHHMTPNPRHWARELWQRSRDRGLQTHIDVLVDATGLDDYPLLAEHARQSDPPALFKLLEQTPEAALADEGPLLLRLEDGHAAWLDELLERIDCRRHLMLLFSPWPLPRLGEHLRSCTQAEWNQGRSSGVLRFYEPGLFMAVSDMLDPRQSCYLHAPVSSWHWLDRDGRPRALAGHYQAHETPPLQAALRLEAHQVAALRAWSEAEAYRREYFVLPREHGLGSQESLLQHLVQAHLAADRQGLQDFDQRDAFVAQWLREQTPGPGFSPAGTSRA” the “soluble on expression in E. coli” value was “not soluble”. With “MTDAGSSFCPECGDPVDSVGGDGATRREQSLCDSCYFAAFDLVDAPDTIEVMVCARCGAVHRGNRWVDIGADDYVDVAVAETTEALGVHLEAEDVDWEVRPEKLDDNTVRMHATFTGVVRDTHRTEQVAVTVKVSRQTCQRCGRIAGESYASTVQVRAVGRDPTSEETDRAAELAHRIVADMEATGDREAFVTEIGDAESGTDIKLSTTKIGLKLARKLVEEFGGDFEDHETLITEDDDGNEVYRVTYAVRLPEFVPGDVVDIAADDGGPVLVQSNHGNLKGVRVTTGEPYEASFEDGDSPDARKLGAVADATEATVVTVEDDAAIQILDPDTYEAQTVARPDYVDPDASTVPALKSRAGLHVLPDALEHHHHHH” the “soluble on expression in E. coli” value was “soluble”. For “MAARHAVRGGTVYGGGNGYRVNLVGRGTGGSTMVHHQPLNRISSQRSVAPVGRVLNRGALRNGAQQPLHVSTSSPAFHYMEEQPSPTTNGMVIQAKTPGAGVIQARHMQSQQSFPSGGPARVLMNRSSTNAGLSRMVGGGYDQQLPTAPNGRLMIPSTAVRVPGSGMASPRLQTTPQPLTKSQKAKDEMKMAYQVGREEALQQRRNDLEDDEENLGYAETYSEYTPAKLRSGMAHPDSVVESASLSSVSPPDVKYQISIPEYLIDMGHISALQLEAVIYACQMHERRMPSGERYGYLIGDGAGVGKGRTVACIIFENYLQGRKRAIWLSVSSDLKFDAERDLRDCGAPNIPVYALNKMKYAKISGKENGSIKKGVMFATYTSLIGECRGAKSRKYRSRISQLIQWFGQDYDGVIILDECHRAKNLVPTAGAKPTKTGRMVLELQKALPNARVVYASATGATEPRNMAYMTRLGLWGERQAFPEFHDFISAVERRGVGAMEIVAMDMKQRGLYLARQLSFRGVSFAVQEVQLSSEFVKMYDAAVKLWMEARRQFQTVIETMDEEERSTCKTVWGQFWACHQRFFKYLCIAAKVDTCVQLSREAIKAKKCVVIGLQSTGESATLETLEEMGGELNEFVSTAKTVLYGLIDKHFPTDASFSMGDRDIFKDFDDFERPAKRRKTRETLSFLGDVGFDTWTGVTTGMGGRVGDGVTKNITRGLSGIGRSSMSSSTGNTNNEDANSTTSESSDGSDDEVENDMISENGGESGDLESAREEAEGARTLEDGEQDEWVKALLAEAESSSDDSDEEVVKDEDEDEEAESKSGETHEQEEEFNPFMCDFTNDDPWAHNQQIVEDTPQKDRKAKKRKRDEEEAERLREKVRKREERREKKRRRAIRRAEREKQRRNEELQARGSATDFITSSRICGNGSGEQDDINPMLIKTELLAAVERLAPSLPANTLDQLIDEMGGPEYVAEMTGRRGHMVTSETGDVMYQRRNANAEVSLELINMEEKEKFMRGEKLIAIISEAASSGISLQSDRRAINKRRRVHITLELPWSADKAIQQFGRTHRSNQVSGPEYVFLISELAGEKRFASIVAKRLESLGALTHGDRRATETRDLSQFNMDNKYGRVALDTLLKTVIGQAGTPLIDPPKDYKAGEFFEDMRLYMEGVGLLAKNKTGQYTIEKEAATIPKFLNRILGLPVHAQNSLFHYFSEIVAELIAQSKHDGTYDTGIMDLGTGDDQVRKLETRVFTGRVDNGSFRVEIHKIGVERGVSWEEAMELHKEHSNDDDGFYICHPGGANTANTKKVAALVYGIGKIRMDNGARLYAITRPSTGRSPKLMTMADLSKRFHKVSIDEAKEVWKQQYDSAANMCQHNYVYGKCRTESNGTYCEVGRRTRTYFVLSGSVLSVWPIVEEVLAGSDRKSSRMQVIRVRTEQDQKIVGKLVVFFGK”, the “soluble on expression in E. coli” value was “not soluble”. In the case of “MEQHVIEFLTTTLDDLKAQDILAIDVRGKSSITDTMIIATGTSVRHVASTAERLITEAKKAGVQVLGEEGRAVADWVVVDFGQAIVHLLQADARELYQLEKLWRLEHHHHHH”, the “soluble on expression in E. coli” value is reported as “not soluble”. In the case of “MSLNNLNTNIDFIKKSPKTELHLHIEGSLEPELMFKLSKRNKIEIPFKSVDEIRSAYNFTNLDSFLKIYYEGSNVLIREEDFFDLTWEYVLRCKQDNIVHTEIFFDPQSHLPRGISFETVINGIDKALKKAEKDFGISSKIIMCFLRHLDEESCFDVLKKAFDHKDKIIGVGLDSSEKGNPPSKFKRLFEQAVKEGFITVAHAGEEGPPEYIWDSLDILKVKRIDHGVQCLNDEKLVNKLVKEQIPLTVCPLSNVKLCVFDKLENHNLKKMLDKGLRVMVNSDDPAYFGGYLNKNLIETSRALNLNLVDIKKLIENSFKSSFLEKEKKENWLKKINEGHHHHHH”, the “soluble on expression in E. coli” value is reported as “soluble”. For “MGHHHHHHSHMKMGYEEVSQKFTSIRRVRGDNYCALRATLFQAMSQAVGLPPWLQDPELMLLPEKLISKYNWIKQWKLGLKFDGKNEDLVDKIKESLTLLRKKWAGLAEMRTAEARQIACDELFTNEAEEYSLYEAVKFLMLNRAIELYNDKEKGKEVPFFSVLLFARDTSNDPGQLLRNHLNQVGHTGGLEQVEMFLLAYAVRHTIQVYRLSKYNTEEFITVYPTDPPKDWPVVTLIAEDDRHYNIPVRVCEETSL”, the “soluble on expression in E. coli” value was “soluble”. With “MINYPNLPNSALEITEQPEVKEITNELLKQLQNALNSNSLFSEQVELSLKGIVRILEVLLSLDFFKNANEIDSSLRNSIEWLNNAGESLKTKMKEYEGFFSDFNTSMRTNEQEVSATLNANTENIKSEIKKLENQLIETTTRLLTSYQIFLNNARDSANNQITANKTESLEALNQAKTSANNEITANQTQALTNINEAKENANNQITENKTQAITNINEAKNQSLSKH” the “soluble on expression in E. coli” value was “not soluble”. In the case of “MPMVRVATNLPNEKVPVDFEIRLTDLLARSMGKPRERIAVEIAAGARLVHGATHDPVTVISIKSIGAVSAEDNIRNTAAITEFCGKELGLPKDKVVITFHDLPPATVGFNGTTVAEANKK”, the “soluble on expression in E. coli” value is reported as “not soluble”. With “GPGSMNVDDFRTVIPSPVYVATRGERSGINVAVRALAPVTDVVFDMEEQFAVVCQRRRFSTYAISSWMESLDVPSIPGAAVPLVSVEPQGFSSLGFALSALQFLSSSLHVIAGYHRAPVVDIFDLENVDEETSEPQQRFNLTDVKENGNVEDGSSAYANDVMPMDRYVSLGALSSGLSVWLDSRSGKAEACTGVLTRQYTIGAHNRHTGRRDPLACVTSLCQGNPANILLGTEAGALQLWDVRCARECVAQHMTSASICRLHPSYSYPLRNVVWLNTLAGCVEAVSVGQSDMELLARRLCPDFQRSSSTFHLPPPRLSFMESSGVVACPHISSGKLLLYDGSSLVKQPNNSRTQLSSYNRGVDGKDNEYENGHCSNFGGFLREASSSSEESGEREIPLLNALPSEANALVTACTVWSNRDMFVLGDETGRVQLL” the “soluble on expression in E. coli” value was “not soluble”. With “MASMQKLINSVQNYAWGSKTALTELYGIANPQQQPMAELWMGAHPKSSSRITTANGETVSLRDAIEKNKTAMLGEAVANRFGELPFLFKVLCAAQPLSIQVHPNKRNSEIGFAKENAAGIPMDAAERNYKDPNHKPELVFALTPFLAMNAFREFSDIVSLLQPVAGAHSAIAHFLQVPNAERLSQLFASLLNMQGEEKSRALAVLKAALNSQQGEPWQTIRVISEYYPDDSGLFSPLLLNVVKLNPGEAMFLFAETPHAYLQGVALEVMANSDNVLRAGLTPKYIDIPELVANVKFEPKPAGELLTAPVKSGAELDFPIPVDDFAFSLHDLALQETSIGQHSAAILFCVEGEAVLRKDEQRLVLKPGESAFIGADESPVNASGTGRLARVYNKL” the “soluble on expression in E. coli” value was “soluble”.
